Assay results: publication PMC12016715

Molecular target: SARS-CoV-2 spike (S)-trimer protein (SARS-CoV-2) (UniProt P0DTC2)
Test: SEC

SARS-CoV-2 spike (S)-trimer protein (from UniProt P0DTC2 16-1209) (domain or fragment)
stoichiometry N: 3
